Our source for the binding values is paper PMC8218686.

This data set concerns T1, YhjC-His6 (Shigella flexneri (serotype 5a M90T?)), ORF:c5ce7ff9.
T1 sequence: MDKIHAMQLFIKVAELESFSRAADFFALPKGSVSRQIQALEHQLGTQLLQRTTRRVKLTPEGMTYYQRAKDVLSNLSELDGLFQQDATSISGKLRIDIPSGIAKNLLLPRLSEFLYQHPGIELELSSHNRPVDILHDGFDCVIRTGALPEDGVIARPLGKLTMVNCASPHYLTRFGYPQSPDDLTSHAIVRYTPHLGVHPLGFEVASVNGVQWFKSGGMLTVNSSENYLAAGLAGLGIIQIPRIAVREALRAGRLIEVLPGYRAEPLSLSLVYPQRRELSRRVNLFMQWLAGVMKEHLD
The data set is described as follows: EMSA. The settings on record: 20 mM Tris-HCl pH 7.5, 50 mM KCl, 1 mM EDTA, 1 mM DTT, 5% glycerol. In general terms: In EMSA bound probe runs differently from free probe, usually more slowly.

As to “GGTTATAGTCCCTTTCAGTGCAAATACTTAGCTTGTTGCACAGAGAAATAGAAGCTGCATAAGCTCTTTCTTCAAAAAATGTAAATAAAGTTAAATATAGGAAAAATTACTTAATCTATCTTAATAACGGAAAGATTTTGTATACAATCACTGTTACAGAAATTTCTTAGTTACTCTGTAAACACTAAATATAGTTTGGTATATTCTGTTGAATTTATGATGGATATGGGACATAAAAACAAAATAGATATAAAGGTTCGCTTGCATAAC (double strand) [virF promoter (PvirF)]”, the binding result is recorded as “binds”.
